Experimental data: patent US20220119824A1

Legend:
[1] = molecular target: recombinant murine CTLA-4-human IgG1 Fc chimera (R&D Systems) (mouse; human) (UniProt P09793); experiment: competitive ELISA: mouse CD86 coated (competitor), murine CTLA-4-human IgG1 Fc chimera at 10 ng/ml mixed with scFv supernatant, anti-human IgG1-HRP
[2] = molecular target: recombinant murine CTLA-4-human IgG1 Fc chimera (R&D Systems) (mouse; human) (UniProt P09793); experiment: competitive ELISA: mouse CD80 coated (competitor), murine CTLA-4-human IgG1 Fc chimera at 10 ng/ml mixed with scFv supernatant, anti-human IgG1-HRP
[3] = molecular target: IL-12 receptor on HEK-Blue™ IL-12 cells (InvivoGen) (UniProt P42701); experiment: cell-based or functional assay
[4] = molecular target: mouse TGF-β1 (R&D systems) (mouse) (UniProt P04202); experiment: direct ELISA with mouse TGF-β1 on supernatant of transfected HEK293T cells
[5] = molecular target: mouse TGF-β1 (R&D systems) (mouse) (UniProt P04202); experiment: direct ELISA with mouse TGF-β1 on concentrated supernatant of transfected HEK293T cells

Substance	STAT4-SEAP reporter in HEK-Blue IL-12 cells co-cultured with transfected HEK cells (Absorbance/% GFP) (Absorbance/% GFP) [3]	also measured
Anti-CTLA-4 scFv (ipilimumab scFv antibody fragment)	–	% CD86 Blockade Activity [1]: 32.5%; % CD80 Blockade Activity [2]: 7%
Mouse membrane bound IL-12p70 (ligand)	0.117	–
Soluble mouse TGFβ receptor II Fc (from UniProt Q62312 24-166) (Fc fusion)	–	Absorbance at 450 nm (absorbance at 450 nm) [4]: 1.51; Absorbance at 450 nm (absorbance at 450 nm) [5]: 1.52
huIL-12p70 (soluble human IL-12p70) (from UniProt P29460 23-328; P29459 23-219) (ligand)	0.11	–

Further lines, with some results ahead:

STAT4-SEAP reporter in HEK-Blue IL-12 cells co-cultured with transfected HEK cells (Absorbance/% GFP) (Absorbance/% GFP) [3]	Substance	also measured
0.237	Human membrane bound IL-12p70 (ligand)	–
0.11	muIL-12p70 (soluble murine IL-12p70) (from UniProt P43432 23-335; P43431 23-215) (ligand)	–
